The data set concerns MS2 coat protein. Put plainly: apparent KD of MS2 coat protein; designed switch direction (-1 OFF switch, 1 ON switch): -1; higher = weaker reporter binding. The method in brief: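 Designed RNA switches with common flanks were transcribed on Illumina chips by stalled E. coli RNA polymerase and titrated with SNAP-549-labelled MS2 coat protein, from 0.7 or 1.5 nM doubling to 3 µM, in Tris-HCl pH 7.5 buffer with KCl, MgCl2, BSA, DTT, tRNA and Tween-20. Steps lasted 0.8–1.5 h (lowest) to 10–20 min (highest). Titrations ran without input, with 200 uM small-molecule ligand, or with an oligonucleotide input. Normalised cluster fluorescence was curve-fitted, and apparent KD is the per-design median over clusters.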

Where [1] appears, read: input ligand: microRNA oligo, concentration not stated.
Where [2] appears, read: Eterna round: R95, input ligand: microRNA oligo, concentration not stated.
Where [3] appears, read: Eterna round: R95, input ligand: FMN 200 uM.
Where [4] appears, read: Eterna round: R95, input ligand: none.

With “AGCUGUGGCCGAGGAUAUUCAGCCUUAAAUACCGACGUAUAGUCGGACAUGAGGAUCACCCAUGUGGAGAAGGCGGUCUCAGCA [Eli eng2 - 046] (Eterna round: R96, puzzle: Exclusion NG 2)”, the “apparent KD of MS2 coat protein” value runs as follows: (input ligand: FMN 200 uM) 0.0764 µM; under setting [1], 0.0345 µM; (input ligand: none) 0.0484 µM.

“AGGAUACGAGGAUAUACGCGGAGACCUCAGGGUCUACAAACACAUGAGGAUCACCCAUGUAGAAGGCGUACCAG [Eternabot (Original) Solution 11] (Eterna round: R97, puzzle: Exclusion 2)”: the “apparent KD of MS2 coat protein” value is, setting by setting: (input ligand: FMN 200 uM) 0.394 µM; (input ligand: none) 0.042 µM.

On to “AGGCGGAAAGUAAGGAUAUCUUGACCAAAGGGUUGAGAGAAGGUACAUGAGGAUCACCCAUGUGUUUACCGCCA [Shrinking Claw (Vienna2)] (Eterna round: R97, puzzle: Brourd's mod of Exclusion 4)”, for which the “apparent KD of MS2 coat protein” value turned out to be 0.0124 µM (input ligand: FMN 200 uM) and 0.0129 µM (input ligand: none).

“AGGGACGGCUGAGGAUAUAUGUAGAGUGAGAUAGUAGAAGGCAGACAUGAGGAUCACCCAUGUAUCGGUCCUCAUAUCUCGUAU [Default title] (Eterna round: R96, puzzle: Exclusion NG 1)”: the “apparent KD of MS2 coat protein” value (input ligand: FMN 200 uM) came to 0.0143 µM, the “apparent KD of MS2 coat protein” value under setting [1] was found to be 0.0159 µM and the “apparent KD of MS2 coat protein” value (input ligand: none) was 0.0177 µM.

In the case of “AGGUAACAUGAGGAUCACCCAUGUCAGGAUAUCAUGAAGAUUAGAUUAGAGGAGAGGUUGAGAAGGGACUAUAU [Excluse me! 16 - Jieux - Exclusion 1] (puzzle: Exclusion 1)”, under setting [2], the “apparent KD of MS2 coat protein” value turned out to be 0.0454 µM.

For the sequence “AGGUCACAUGAGGAUCACCCAUGUCAGGAUAUCGUCACUGGAGCUUCGGCUCCAGUGACGAGAAGGGACAAUUA [E1/6-A1] (Eterna round: R97, puzzle: Exclusion 1)”, the “apparent KD of MS2 coat protein” value is 0.499 µM (input ligand: FMN 200 uM) and 0.0805 µM (input ligand: none).

On to “AGGUGCUUCUGGAGACAUGAGGAUCACCCAUGUUGAGUUAGCGAGGAUAUCGGUAACCAUUGUUAUGAGAAGGCGCAAACCAGA [Ex NG3 #40] (Eterna round: R96, puzzle: Exclusion NG 3)”, for which the “apparent KD of MS2 coat protein” value was 0.0229 µM (input ligand: FMN 200 uM), 0.0105 µM under setting [1] and 0.0278 µM (input ligand: none).

“AGGUGUAGAGGAUAUCUCUUCUCUCACAUGAGGAUCACCCAUGUCCUAAAGACCAAGGAGAGAGAAGGCUACACCA [Omei Ex5 D6] (Eterna round: R97, puzzle: Exclusion 5)”: the “apparent KD of MS2 coat protein” value runs as follows: (input ligand: FMN 200 uM) 0.042 µM; (input ligand: none) 0.0418 µM.

For “AGGUGUAGAGGAUAUCUCUUCUCUCACAUGAGGAUCACCCAUGUCCUGGGUACCUGGGAGAGAGAAGGCUACACCA [Omei Ex5 D12] (Eterna round: R97, puzzle: Exclusion 5)”, the “apparent KD of MS2 coat protein” value reads like this: (input ligand: FMN 200 uM) 1.06 µM; (input ligand: none) 2.46 µM.

As to “AGGUGUAGGUAAGGAUAUAUCUAAAACCACAUGAGGAUCACCCAUGUAGCGGGUAUCUUCGUGAGAUAGAAGGUGCACGCCGAA [Atbiasori] (Eterna round: R96, puzzle: Exclusion NG 2)”, the “apparent KD of MS2 coat protein” value amounted to 0.494 µM (input ligand: FMN 200 uM), 0.269 µM under setting [1] and 0.308 µM (input ligand: none).

For “AGGUUGGCGUGAGGAUAUUGGAAAGGAAGUGUACAAGAAGGUACGGACCUAAAACAUGAGGAUCACCCAUGUGGUCCUUAUGCC [PowerStrip EXNG 1.26] (Eterna round: R96, puzzle: Exclusion NG 1)”, the “apparent KD of MS2 coat protein” value (input ligand: FMN 200 uM) is 0.014 µM, the “apparent KD of MS2 coat protein” value under setting [1] is 0.0112 µM and the “apparent KD of MS2 coat protein” value (input ligand: none) turned out to be 0.0196 µM.

For “AGUAACCGUCACGAAAGUGAUGGUUACACAAGCAUAUGUACAUGAGGAUCACCCAUGUCCUCAAUUGCUCGUCUUAU [Sensor 3 - 54] (puzzle: Sensor v3, turn-off variant 2)”, the “apparent KD of MS2 coat protein” value turned out to be 0.167 µM under setting [3], 0.25 µM under setting [2] and 0.226 µM under setting [4].

For “AGUAACCGUCACGAAAGUGAUGGUUACACAAGUAAUGAAACAUGAGGAUCACCCAUGUCCUCAUUUGCUCGUCUUAU [Sensor 3 - 39] (puzzle: Sensor v3, turn-off variant 2)”, the “apparent KD of MS2 coat protein” value was determined as 0.354 µM under setting [3], 0.362 µM under setting [2] and 0.35 µM under setting [4].

On to “AGUAACCGUCACGAAAGUGAUGGUUACAUAAGCAUAUGUACAUGAGGAUCACCCAUGUCCUCAACUGCUCGUUUUAU [Sensor 3 - 56] (puzzle: Sensor v3, turn-off variant 2)”, for which the “apparent KD of MS2 coat protein” value reads like this: under setting [3], 0.292 µM; under setting [2], 0.612 µM; under setting [4], 0.349 µM.

Turning to “AGUAACUAUCACGAAAGUGAUAGUUACAAACAAGUGAAAACAUGAGGAUCACCCAUGUCCUCAUUUGCUCGUCUUAU [Sensor 3 - 7] (puzzle: Sensor v3, turn-off variant 2)”, the “apparent KD of MS2 coat protein” value by setting is: under setting [3], 0.182 µM; under setting [2], 0.884 µM; under setting [4], 0.329 µM.

For “AGUAACUAUCACGAAAGUGAUAGUUACACAAGUGAAUAAACAUGAGGAUCACCCAUGUCCUCAUUUGCUCGUUUUAU [Sensor 3 - 17] (puzzle: Sensor v3, turn-off variant 2)”, the “apparent KD of MS2 coat protein” value by setting is: under setting [3], 0.486 µM; under setting [2], 0.553 µM; under setting [4], 0.4 µM.

Regarding “AGUAACUAUCACGAAAGUGAUAGUUACAGCAAGUGAUAAACAUGAGGAUCACCCAUGUCCUCAUUUGCUCGUCUUAU [Sensor 3 - 12] (Eterna round: R96, puzzle: Sensor v3, turn-off variant 2)”, the “apparent KD of MS2 coat protein” value runs as follows: (input ligand: FMN 200 uM) 0.015 µM; under setting [1], 0.386 µM; (input ligand: none) 0.0172 µM.

Take “AGUAACUAUCACGAAAGUGAUAGUUACAGCAAGUGAUAAACAUGAGGAUCACCCAUGUCCUCAUUUGCUCGUCUUAU [Sensor 3 - 12] (puzzle: Sensor v3, turn-off variant 2)”: the “apparent KD of MS2 coat protein” value stood at 0.0151 µM under setting [3], 0.739 µM under setting [2] and 0.0127 µM under setting [4].

Consider “AGUAACUCAUGAGGAUAUCACAUGAGGAUCACCCAUGUAUAGCGCGCUAUGCUAGUCCUCGUAUAUGAGAAGGUAUGAUAAAUG [JL ViennaUCT Quve mod 3] (Eterna round: R96, puzzle: Exclusion NG 2)”, for which the “apparent KD of MS2 coat protein” value is 0.022 µM (input ligand: FMN 200 uM), 0.0157 µM under setting [1] and 0.0257 µM (input ligand: none).

As for “AGUACAUACACGAAAGUGUAUGUACAAUAAGCUUGUGGAACAUGAGGAUCACCCAUGUCCUCAUAAGCUCGUCUUAU [Mat - Sensor v3 - Turn-off var 2 - D30] (puzzle: Sensor v3, turn-off variant 2)”, the “apparent KD of MS2 coat protein” value stood at 0.0165 µM under setting [3], 0.0714 µM under setting [2] and 0.0155 µM under setting [4].

“AGUACUAACACGAAAGUGUUAGUACAAUAAGCUAGUGGAACAUGAGGAUCACCCAUGUCCUCAUUAGCUCGUCUUGU [Mat - Sensor v3 - Turn-off var 2 - D39] (puzzle: Sensor v3, turn-off variant 2)”: the “apparent KD of MS2 coat protein” value by setting is: under setting [3], 0.0162 µM; under setting [2], 0.0348 µM; under setting [4], 0.0125 µM.

“AGUACUAACACGAAAGUGUUAGUACAAUAAGCUUGUGAAACAUGAGGAUCACCCAUGUCCUCAUAAGCUCGUCUUAA [salish99_TOv2_r3_002] (puzzle: Sensor v3, turn-off variant 2)”: the “apparent KD of MS2 coat protein” value was 0.0129 µM under setting [3], 0.379 µM under setting [2] and 0.0108 µM under setting [4].

For “AGUACUAACACGAAAGUGUUAGUACAAUAAGCUUGUGAAACAUGAGGAUCACCCAUGUCCUCAUAAGCUCGUCUUGU [salish99_TOv2_r3_009] (puzzle: Sensor v3, turn-off variant 2)”, the “apparent KD of MS2 coat protein” value is 0.0152 µM under setting [3], 0.353 µM under setting [2] and 0.0137 µM under setting [4].

For the sequence “AGUACUAACACGAAAGUGUUAGUACAAUAAGCUUGUGGAACAUGAGGAUCACCCAUGUCCUCAUAAGCUCGUCUUAG [Mat - Sensor v3 - Turn-off var 2 - D26] (puzzle: Sensor v3, turn-off variant 2)”, the “apparent KD of MS2 coat protein” value was found to be 0.0159 µM under setting [3], 0.0623 µM under setting [2] and 0.013 µM under setting [4].

With “AGUACUAACACGAGAGUGUUAGUACAAUAAGCUUGUGAAACAUGAGGAUCACCCAUGUCCUCAUAAGCUCGUCUUAU [salish99_TOv2_r3_029] (Eterna round: R96, puzzle: Sensor v3, turn-off variant 2)”, the “apparent KD of MS2 coat protein” value turned out to be 0.0153 µM (input ligand: FMN 200 uM), 0.467 µM under setting [1] and 0.0181 µM (input ligand: none).

Regarding “AGUACUAACACGAGAGUGUUAGUACAAUAAGCUUGUGAAACAUGAGGAUCACCCAUGUCCUCAUAAGCUCGUCUUAU [salish99_TOv2_r3_029] (puzzle: Sensor v3, turn-off variant 2)”, the “apparent KD of MS2 coat protein” value is, setting by setting: under setting [3], 0.0181 µM; under setting [2], 0.949 µM; under setting [4], 0.0172 µM.

Turning to “AGUACUAACACGCAUGUGUUAGUACAAUAAGCUUGUGAAACAUGAGGAUCACCCAUGUCCUCAUAAGCUCGUCUUAU [salish99_TOv2_r3_068] (Eterna round: R96, puzzle: Sensor v3, turn-off variant 2)”, the “apparent KD of MS2 coat protein” value (input ligand: FMN 200 uM) came to 0.0148 µM, the “apparent KD of MS2 coat protein” value under setting [1] was determined as 0.415 µM and the “apparent KD of MS2 coat protein” value (input ligand: none) was found to be 0.0172 µM.

As to “AGUACUAACACGCAUGUGUUAGUACAAUAAGCUUGUGAAACAUGAGGAUCACCCAUGUCCUCAUAAGCUCGUCUUAU [salish99_TOv2_r3_068] (puzzle: Sensor v3, turn-off variant 2)”, the “apparent KD of MS2 coat protein” value stood at 0.0176 µM under setting [3], 0.411 µM under setting [2] and 0.0161 µM under setting [4].

The values are drawn from the supplement of paper PMC9170038.
